Source: publication PMC5017722

Columns and labels:
[1] = biological target: soluble hMPV F ectodomain (1-489, NL/1/00, G294E) with C-terminal TEV site, Foldon, Xa site and 6xHis-tag, uncleaved (human metapneumovirus, strain NL/1/00 (A1 sublineage)); experiment: SEC; HiLoad 16/600 Superdex 200 pg; 50 mM Na2HPO4 pH 8.0, 300 mM NaCl
[2] = biological target: soluble postfusion hMPV F (NL/1/00, A1 sublineage), furin-cleaved, fusion peptide residues 103-111 d (human metapneumovirus, strain NL/1/00 (A1 sublineage)); experiment: as above

Row | Substance | stoichiometry N [1] | stoichiometry N [2]
1 | soluble hMPV F ectodomain (1-489, NL/1/00, G294E) with C-terminal TEV site, Foldon, Xa site and 6xHis-tag, uncleaved (domain or fragment) | 3 | –
2 | soluble postfusion hMPV F (NL/1/00, A1 sublineage), furin-cleaved, fusion peptide residues 103-111 d (domain or fragment) | – | 3
